We go through 6 molecules from PMC4414177 (2015).

To fix the notation:
B1: TRAF2 CTD (protein)
chain: DQDKIEALSSKVQQLERSIGLKDLAMADLEQKVLEMEASTYDGVFIWKISDFARKRQEAVAGRIPAIFSPAFYTSRYGYKMCLRIYLNGDGTGRGTHLSLFFVVMKGPNDALLRWPFNQKVTLMLLDQNNREHVIDAFRPDVTSSSFQRPVNDMNIASGCPLFCPVSKMEAKNSYVRDDAIFIKAIVDLTGL
modifications: 1 mM GSH+8 μM MC3181
B2: TRAF2 CTD (protein)
chain: DQDKIEALSSKVQQLERSIGLKDLAMADLEQKVLEMEASTYDGVFIWKISDFARKRQEAVAGRIPAIFSPAFYTSRYGYKMCLRIYLNGDGTGRGTHLSLFFVVMKGPNDALLRWPFNQKVTLMLLDQNNREHVIDAFRPDVTSSSFQRPVNDMNIASGCPLFCPVSKMEAKNSYVRDDAIFIKAIVDLTGL
modifications: 1 mM GSH
B3: TRAF2 CTD (protein)
chain: DQDKIEALSSKVQQLERSIGLKDLAMADLEQKVLEMEASTYDGVFIWKISDFARKRQEAVAGRIPAIFSPAFYTSRYGYKMCLRIYLNGDGTGRGTHLSLFFVVMKGPNDALLRWPFNQKVTLMLLDQNNREHVIDAFRPDVTSSSFQRPVNDMNIASGCPLFCPVSKMEAKNSYVRDDAIFIKAIVDLTGL
B4: JNK1α2 (protein)
chain: MSRSKRDNNFYSVEIGDSTFTVLKRYQNLKPIGSGAQGIVCAAYDAILERNVAIKKLSRPFQNQTHAKRAYRELVLMKCVNHKNIIGLLNVFTPQKSLEEFQDVYIVMELMDANLCQVIQMELDHERMSYLLYQMLCGIKHLHSAGIIHRDLKPSNIVVKSDCTLKILDFGLARTAGTSFMMTPYVVTRYYRAPEVILGMGYKENVDLWSVGCIMGEMVCHKILFPGRDYIDQWNKVIEQLGTPCPEFMKKLQPTVRTYVENRPKYAGYSFEKLFPDVLFPADSEHNKLKASQARDLLSKMLVIDASKRISVDEALQHPYINVWYDPSEAEAPPPKIPDKQLDEREHTIEEWKELIYKEVMDLEERTKNGVIRGQPSPLGAAVINGSQHPSSSSSVNDVSSMSTDPTLASDTDSSLEAAAGPLGCCR
modifications: 1 mM GSH
B5: JNK1α2 (protein)
chain: MSRSKRDNNFYSVEIGDSTFTVLKRYQNLKPIGSGAQGIVCAAYDAILERNVAIKKLSRPFQNQTHAKRAYRELVLMKCVNHKNIIGLLNVFTPQKSLEEFQDVYIVMELMDANLCQVIQMELDHERMSYLLYQMLCGIKHLHSAGIIHRDLKPSNIVVKSDCTLKILDFGLARTAGTSFMMTPYVVTRYYRAPEVILGMGYKENVDLWSVGCIMGEMVCHKILFPGRDYIDQWNKVIEQLGTPCPEFMKKLQPTVRTYVENRPKYAGYSFEKLFPDVLFPADSEHNKLKASQARDLLSKMLVIDASKRISVDEALQHPYINVWYDPSEAEAPPPKIPDKQLDEREHTIEEWKELIYKEVMDLEERTKNGVIRGQPSPLGAAVINGSQHPSSSSSVNDVSSMSTDPTLASDTDSSLEAAAGPLGCCR
B6: JNK1α2 (protein)
chain: MSRSKRDNNFYSVEIGDSTFTVLKRYQNLKPIGSGAQGIVCAAYDAILERNVAIKKLSRPFQNQTHAKRAYRELVLMKCVNHKNIIGLLNVFTPQKSLEEFQDVYIVMELMDANLCQVIQMELDHERMSYLLYQMLCGIKHLHSAGIIHRDLKPSNIVVKSDCTLKILDFGLARTAGTSFMMTPYVVTRYYRAPEVILGMGYKENVDLWSVGCIMGEMVCHKILFPGRDYIDQWNKVIEQLGTPCPEFMKKLQPTVRTYVENRPKYAGYSFEKLFPDVLFPADSEHNKLKASQARDLLSKMLVIDASKRISVDEALQHPYINVWYDPSEAEAPPPKIPDKQLDEREHTIEEWKELIYKEVMDLEERTKNGVIRGQPSPLGAAVINGSQHPSSSSSVNDVSSMSTDPTLASDTDSSLEAAAGPLGCCR
modifications: 1 mM GSH+8 μM MC3181

The target in the assay is GSTP1-1 (Homo sapiens, UniProt P09211). The assay can be described thus: ELISA. For orientation: ELISA stands for enzyme-linked immunosorbent assay.
As a reminder, the Kd is a measure of binding affinity in units of concentration. Low values mean a tighter complex, high ones a looser complex. Molecule B1 registered a Kd of over 10000 nM.
The result for B2 reads 3000 nM; that for B3, 280 nM.
The figure for B4 is 2200 nM.
The figure for B5 is 420 nM; for B6 it is over 5000 nM.
